# Measurements published in US20200299408A1 (Genentech, published 2020).
# Several values for one entry are separate records, joined by “and”; a condition that tells them apart may be missing. Identical values can stand only once.
# T1: single chain human CD3ε-26mer-CD3γ (CD3εγ) (human)
# T1 construct: also called human CD3εγ
# T1 chain: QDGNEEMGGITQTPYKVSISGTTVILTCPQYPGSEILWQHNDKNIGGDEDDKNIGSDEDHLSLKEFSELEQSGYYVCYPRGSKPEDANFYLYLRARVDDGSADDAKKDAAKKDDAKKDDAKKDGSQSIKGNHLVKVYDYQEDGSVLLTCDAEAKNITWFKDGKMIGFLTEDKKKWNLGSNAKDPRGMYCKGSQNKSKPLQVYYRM
# Experiments:
# [1] = target: T1, single chain human CD3ε-26mer-CD3γ …; assay: Biacore single cycle kinetics: Fab captured by anti-human Fab, human CD3εγ injected (3-250 nM)
# Source text: In addition, position 95 in HVR-H3 was also mutated to serine, threonine, or glutamate. Variants with these single point mutations were expressed as Fabs in HEK293 cells and initially screened with a single cycle kinetics method on a Biacore T100. Selected variants were also scaled up and purified for a conventional multi-cycle kinetics method. For single cycle kinetics, Biacore Series S CM5 sensor chips were immobilized with anti-human Fab antibodies (Human Fab capture kit, GE Healthcare). […] For conventional multi-cycle kinetics, human CD3εγ, cyno CD3εγ, or a 27-mer peptide were immobilized on Biacore Series S CM5 sensor chip using the amine coupling kit from Biacore. Serial 3-fold dilutions of each Fab variant were injected at a flow rate of 30 μl/min. Each sample was analyzed with a protocol of 3-minute association and 3-minute dissociation. In both methods, the Biacore chips were regenerated using 10 mM Glycine (pH 1.7). Binding response was corrected by blank subtraction and a 1:1Languir model of simultaneous fitting of kₒₙ and koff was used for kinetics analysis.
# [2] = target: T1, single chain human CD3ε-26mer-CD3γ …; assay: Biacore, human CD3εγ on chip, TDB in flow through
# Method: (§1) Binding affinities for the each of the CD3/CD20 TDBs were tested by Biacore or FACS analysis, as described above for the anti-CD3 antibodies. Briefly, for Biacore binding assays, human CD3εγ was immobilized on Biacore Series S CM5 sensor chip using the amine coupling kit from Biacore and CD3/CD20 TDBs or Fab variants thereof were in the flow through. For FACS binding assays, either Bjab cells (for B cell antigens) or Jurkat cells (for CD3 antigen) were incubated with various concentrations of TDB antibodies at 4° C. for 30 minutes, then cells were washed and incubated with 2nd antibody (anti-huIgG-PE; BD Bioscience) for another 15 minutes, before cells were washed again and ready for FACS analysis.
# [3] = target: T2, human CD3 on T cells (human, UniProt P07766 22-207); assay: FACS on Jurkat cells (CD3); EC50 table for the curves of FIGS. 21A-21B; source CHO (N297G)
# T2 construct: whole, on cells; On cells CD3ε stands in the CD3/TCR complex; also called CD3 antigen; CD3ε
# Method: as §1
Kd [2],koff [2],kon [2],EC50 [3],Binder,binding result [1]
–,–,–,–,"hu38E4.v1 H3 mutant F100bA (Fab, V domains shown, copies: 1 + 1) VH: EVQLVQSGAEVKKPGASVKVSCKASGFTFTSYYIHWVRQAPGQGLEWIGWIYPENDNTKYNEKFKDRVTITADTSTSTAYLELSSLRSEDTAVYYCARDGYSRYYADYWGQGTLVTVSS VL: DIVMTQSPDSLAVSLGERATINCKSSQSLLNSRTRKNYLAWYQQKPGQSPKLLIYWTSTRKSGVPDRFSGSGSGTDFTLTISSLQAEDVAVYYCKQSFILRTFGQGTKVEIK",no binding (tested: 250 nM CD3εγ (p-1386; not on the sheet))
–,–,–,–,"hu38E4.v1 H3 mutant R99A (Fab, V domains shown, copies: 1 + 1) VH: EVQLVQSGAEVKKPGASVKVSCKASGFTFTSYYIHWVRQAPGQGLEWIGWIYPENDNTKYNEKFKDRVTITADTSTSTAYLELSSLRSEDTAVYYCARDGYSAYYFDYWGQGTLVTVSS VL: DIVMTQSPDSLAVSLGERATINCKSSQSLLNSRTRKNYLAWYQQKPGQSPKLLIYWTSTRKSGVPDRFSGSGSGTDFTLTISSLQAEDVAVYYCKQSFILRTFGQGTKVEIK",no binding (tested: 250 nM CD3εγ (p-1386; not on the sheet))
–,–,–,–,"hu38E4.v1 H3 mutant Y97A (Fab, V domains shown, copies: 1 + 1) VH: EVQLVQSGAEVKKPGASVKVSCKASGFTFTSYYIHWVRQAPGQGLEWIGWIYPENDNTKYNEKFKDRVTITADTSTSTAYLELSSLRSEDTAVYYCARDGASRYYFDYWGQGTLVTVSS VL: DIVMTQSPDSLAVSLGERATINCKSSQSLLNSRTRKNYLAWYQQKPGQSPKLLIYWTSTRKSGVPDRFSGSGSGTDFTLTISSLQAEDVAVYYCKQSFILRTFGQGTKVEIK",no binding (tested: 250 nM CD3εγ (p-1386; not on the sheet))
2.43 nM and 2.4 nM,0.00513 s⁻¹,2.11e+06 M⁻¹ s⁻¹,0.52 µg/mL and ~3.4 nM,"38E4v2 CHO (bispecific antibody, also called CD3/CD20 TDB 2H7v16/38E4v2) anti-CD20 arm heavy chain: EVQLVESGGGLVQPGGSLRLSCAASGYTFTSYNMHWVRQAPGKGLEWVGAIYPGNGDTSYNQKFKGRFTISVDKSKNTLYLQMNSLRAEDTAVYYCARVVYYSNSYWYFDVWGQGTLVTVSS anti-CD20 arm light chain: DIQMTQSPSSLSASVGDRVTITCRASSSVSYMHWYQQKPGKAPKPLIYAPSNLASGVPSRFSGSGSGTDFTLTISSLQPEDFATYYCQQWSFNPPTFGQGTKVEIK anti-CD3 arm heavy chain: EVQLVQSGAEVKKPGASVKVSCKASGFTFTSYYIHWVRQAPGQGLEWIGWIYPENDNTKYNEKFKDRVTITADTSTSTAYLELSSLRSEDTAVYYCARDAYSRYYFDYWGQGTLVTVSS anti-CD3 arm light chain: DIVMTQSPDSLAVSLGERATINCKSSQSLLNSRTRKNYLAWYQQKPGQSPKLLIYWTSTRKSGVPDRFSGSGSGTDFTLTISSLQAEDVAVYYCKQSFILRTFGQGTKVEIK",–
3.21 nM and 3.2 nM,0.016 s⁻¹,4.98e+06 M⁻¹ s⁻¹,0.29 µg/mL and ~1.9 nM,"38E4v3 CHO (bispecific antibody, also called CD3/CD20 TDB 2H7v16/38E4v3) anti-CD20 arm heavy chain: EVQLVESGGGLVQPGGSLRLSCAASGYTFTSYNMHWVRQAPGKGLEWVGAIYPGNGDTSYNQKFKGRFTISVDKSKNTLYLQMNSLRAEDTAVYYCARVVYYSNSYWYFDVWGQGTLVTVSS anti-CD20 arm light chain: DIQMTQSPSSLSASVGDRVTITCRASSSVSYMHWYQQKPGKAPKPLIYAPSNLASGVPSRFSGSGSGTDFTLTISSLQPEDFATYYCQQWSFNPPTFGQGTKVEIK anti-CD3 arm heavy chain: EVQLVQSGAEVKKPGASVKVSCKASGFTFTSYYIHWVRQAPGQGLEWIGWIYPENDNTKYNEKFKDRVTITADTSTSTAYLELSSLRSEDTAVYYCARDGYSRYYFDYWGQGTLVTVSS anti-CD3 arm light chain: DIVMTQSPDSLAVSLGERATINCKSSQSLLNSRTRKNYLAWYQQKPGQSPKLLIYWTSTRKSGVPDRFSGSGSGTDFTLTISSLQAEDVAVYYCKQSFALRTFGQGTKVEIK",–
